The nanobody polyreactivity screen of Harvey et al. (2022)

Experiment: yeast display, Sf9 membrane polyspecificity reagent, FACS + sequencing; frameworks hold sequencing errors
Method in brief: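 Genes from sorted yeast were amplified by colony PCR, read by MiSeq 2 × 250 sequencing and filtered on CDR length. These cells carried a synthetic nanobody library in Saccharomyces cerevisiae BJ5465 and were sorted by FACS into low and high (top ~1%) gates on anti-HA and streptavidin fluorescence. Polyreactivity is labelled according to the gate of origin.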

QVQLQESGGGLEQAGGSLRLSCAASGYISHIGTMGWYRQAPGKEREFVATIVVGSTTNYADSVKRRFTISRDNAKNTVYLQPESGRYRGVLLRGWLLAVGKFTYWGQGTQETVSS
polyreactivity (PSR sort gate): low polyreactivity

QVHLVESGGGLVLAPASLRLSSPASGHNQGIYAMGWYRQAPGKEREFVAAISRGGGSTYYADSVKGRFTISRDNAKNTVYLQMNSLNPEDTAVYYCNAVRDRYGVFPYYYWGQGTQVTVSS
polyreactivity (PSR sort gate): high polyreactivity

QVQHVDSRGGLVQAGGSLRLSCAASGSIVPWNDMGWYRQAPGKERQLVAAITYRGGRTYYADSVKGRFTISRDNAKNTVYLQMNSLKPEDTAVYYCATKSRRNSPRMDYWGQGTQVTVSS
polyreactivity (PSR sort gate): high polyreactivity

QVQLVESGGGLVQAGGSLRLSCAASGITFTSYAMGWYRQAPGKERELVAAISTRVGRTYYADSVKGRFTISRDNAKNTVYLQMNSLKPEDTAVYYCAADRISQGYSTYNYWGQGTQVTVSS
polyreactivity (PSR sort gate): high polyreactivity

QVQLVESGGGLVQAGGSLRLSCAASGSIFPYNVMGWYRQAPGKERELVAAITTGGRTNYADSVKGRFTISRDNAKNTVYLQMNSLKPEDTAVYYCAADRVVFGYWYYYWGQGTQVTVSS
polyreactivity (PSR sort gate): high polyreactivity

QVQLVESGGGLVQAGGSLRLSCAASGIIFDRYTMGWYRQAPGKERELVAAIDDSDDSTYYADSVKGRFTISRDNAKNTVYLQMNSLKPEDTAVYYCAAEYTWFEYIDFGYWGQGTQVTVSS
polyreactivity (PSR sort gate): high polyreactivity

QVQLVESGGGLVQAGGSLRLSCAASGSTLASYAMGWYRQAPGKERELVAVIDSGGSTYYADSVKGRFTISRDNAKNTVYLQMNSLKPEDTAVYYCAAGWEFSGVLTLFGYWGQGTQVTVSS
polyreactivity (PSR sort gate): low polyreactivity

QVQLVESGGGLVQAGGSLRLICAASGFIFGYNARGWYRQAPGKERELVAAINWSGGRTYYADSVKGRFTISRDNAKKTVYLQMNRLKPEDTAVDYCNGDGSRRYNYWGQGTQVTVSS
polyreactivity (PSR sort gate): low polyreactivity

QVQLVESVGGLVQAGGSLRLSCAASGYIFDRNAMGWYRQAPGKERELVAAITKRGGITYYADSVKGRFTISRDNAKNTVYLQMNSLKPEDTAVYYCNALARSSRYDYWGQGTQVTVSS
polyreactivity (PSR sort gate): low polyreactivity

QVQLVESGGGLVQAGGSLRLSCAASGSIFSGYAMGWYRQAPGKERELVAAITWRGGSTYYADSVKGRFTISRDNAKNTVYLQMNSLKPEDTAVYYCARVWAWSRYDYWGQGTEVTVSS
polyreactivity (PSR sort gate): high polyreactivity

QVQLVESGGGLVQAGGSLRLSCAASGSTFPYYAMGWYRQATGKEREFVASITYGGGSTYYADSVKGRFTISRDNAKNTVYLQMNSLKPEDTAVYYCAAGYIAGRVWYDYWGQGTQVTVSS
polyreactivity (PSR sort gate): low polyreactivity

QVQLVESGGGLVQAGGSLRLSCAASGRTFYWNAMGWYRQAPGKERELVAAIRWRGGNTYYADSVKGRFTISRDNAKNTVYLQMNSLKPEDTEVYYCNKYGYKGGVGYDYWGQGTQVTVSS
polyreactivity (PSR sort gate): high polyreactivity

QVQLVESGGGLVQAGGSLRFSCAASGSIFFNNAMGWYRQAPGKERELVAAITTGGSTYYADSVKGRFTISRDNAKNTVYLQMNSLKPEDTAVYYCAAVVVYPYRLGYDYWGQGTQVTVSS
polyreactivity (PSR sort gate): low polyreactivity

QVQLVESGGGLVQAGGSLRLSCAASGFIFNYYGMGWYRQAPGKERELVATISGSGGSTYYADSVKGRFTISRDNAKNTVYLQMNSLKPEDTAVYYCNRYPPVHNVGEAYGTLHGYYWGQGTQVTVSS
polyreactivity (PSR sort gate): low polyreactivity

QVQLVESGGGLVQAAGSLRLSCAASGYTSSVYAMGWYIQAHGKERELVAAISADGGSTYYADSVKGRFTISRDNAKNTVYLQMNSLKPEDTAVYYCAKYTYPYTPYSWWYDYWGQGTQVTVSS
polyreactivity (PSR sort gate): low polyreactivity

QVQLVESGGGLVQAGGSLRLSCAASGNTFAQYGMGWYRQAPGKEREFVAAITRRGGSTYYADSVKGRFTISRDNAKNTVYLQMNSLKPEDTAVFYCAAGHYRRRYPSYGLQEYDYWGQGTQVTVSS
polyreactivity (PSR sort gate): high polyreactivity

QVQLVESGGGLVQAGGSLRLSCAASGRIFDSYAMGSYRQAPGKERELVAVISNNDGTTYYADSVKGRFTISRDNEKNTVYLQMNSLKPEDTAVYYCAAEEPLFGYLWYVVTYAGIYDYWGQGSQVTVSS
polyreactivity (PSR sort gate): low polyreactivity

QVQLVESVGGLVQAGGSLRLSCAASGITFYSYDMGWYRQAPGKERELVAAITYRGGSTYYADSVKGRFTISRDNAKNTVYLQMNSLKPEDTAVYYCNADLLPADAPLWVTGGDYWGQGTQVTVSS
polyreactivity (PSR sort gate): low polyreactivity

QVQLVESGGGLVQAGGSLRLSCAASGSTFLYYAMGWYRQAPGKESELVAAIDSGGSTYYADSVKGRFTISRDNAKNTVYLQMNSLKPEDTAVYYCNADPPPEYYPDKDNYWGQGTQVTVSS
polyreactivity (PSR sort gate): low polyreactivity

QVQLVESGGGLVQAGGSLRLSCAASGSIFGAYAMGWYRQAPGKERELVATITLRDGSTYYADSVKGRFTISRDNAKNTVYLQMNSLKPEDTAVYYCATYYSAINYGWSNTILYDYWGQGTQVTVSS
polyreactivity (PSR sort gate): low polyreactivity

QVQLVESGGGLVQAGGSLRLSCAASGITFKGYTMGWYRQAPGKERELVATISRGGRTYAVSVKGRFTISRDNAKNTVYLQMNSLKPEDTAVYYCAADKYWAQNDYWGQGTQVTVSS
polyreactivity (PSR sort gate): low polyreactivity

QVQLVESGGGLVQAGGSLRLSCAASGITFVGNDMGWYRQAPGKERELVATISSSGTRTYYADSVKGRFTISRDNAKNTVYLQMNSLKQEDTAVYYCAARWRSYITYWFDYWGQGTQVTVSS
polyreactivity (PSR sort gate): low polyreactivity

QVQLVESGGGLVQAGGSLRLSCAASGSIFVQYAMGWYRQAPGKERELVAGITISGGRTYYADSVKGRFTISRDNAKNTVYLLMNSLKPEDTAVYYSNADVTRASSRYNSWGHGTQVTVSS
polyreactivity (PSR sort gate): low polyreactivity

QVQLVESGGGLVQAGGSLRLSCAASGLIFLYYVMAWYRQAPGKERELVAGISRSGGRTNYADSVKGRFTISRDNAKNTVYLQMNSLKPEDTAVYYCAALLSIGQPKPTWYYYWGQGTQVTVSS
polyreactivity (PSR sort gate): high polyreactivity

QVQIVESGGGLVQAGGSLRLSCAASGSIFTPYAMGWYRQATGKERELVADIDASGGGTYADSVKGRFTISRDNANNTVYLQMNSLKPEDTAVYYCNTDPYSSAWYNYDYWGQGTQVTVSS
polyreactivity (PSR sort gate): low polyreactivity

QVQLVESGGGLVQAGGSLRLSCAASGNTFVAYAMGWYRQAPGKERELVAGITRGGTTYYADSVKGRFTISRDNAKNTVYLQMNSLKPEDTAVYYCAARLGYRYNYWGQGTQVTVSS
polyreactivity (PSR sort gate): high polyreactivity

QVQLVESGGGLVQAGGSLRLSCAASGILFGGYVMGWDRQAPGKERELVAAISRGGGITYYADSVKGRFTISRDNAKNTVYLQMNSLKPEDPAVYYCNAGVYAGQTGYDYWGQGTQVTVSS
polyreactivity (PSR sort gate): high polyreactivity

QFQLVESGGGLVQAGGSLRLSCAASGFTFPGYALGWSTQAPGKERELVAAINSSGGRTYYADSVKWRFTISRDNAKYTVYLQMNSLKPEDTEVYYCGATRWYIRARYNYWGHGTQVTVSS
polyreactivity (PSR sort gate): high polyreactivity

QVQLVESGGGLVQAGGSLRLSCAASGFIFQPYVMGWYRQAPGKERELVAAISWNGVSTYYADSVKGRFTISRDNAKNTVYLQMNSLKPEDTAVYYCAASYRYVPGLNYWGQGTQVTVSS
polyreactivity (PSR sort gate): low polyreactivity

QVQLVESGGGLVQAGGSLRLSCAASGYTFAWYAMGWYRQAPGKERELVAAITTSGGGTYYADSVKGRFTISRDNAKNTVYLQMNSLKPEDTAVYYCAADTWRDGDDYWGQGTQVTVSS
polyreactivity (PSR sort gate): low polyreactivity

QVQLVASGGGLVQAGASLRLSCAASGFTFSLYGLGGYRQAPGKERELVAALRSGGSTNYADSVKGRFTISRDNAKNTVYLQLNSLKPEDTAVYYCATDIHSVLNNRVKHDYDYWGQGTQVTVSS
polyreactivity (PSR sort gate): low polyreactivity

QVQLVESGGGFVQAGASLRLSCAASGRTFYRYAMGWYRQAPGKERQLVAAINWRGGSTSYADSVKGRFTISRDNAKNTVYLQMNSLIPEDTAVYYCNAKFICWYEKGGCNVSKYEYWGQGTQVTVSS
polyreactivity (PSR sort gate): low polyreactivity

QVQLVESGGGLVQAGGSLRLSCAASGSIFTTYTMASYRQAPGKERELVAAISSSGVRTYYADSVKGRFTISRDNAKNTVYLQMNSLKPEDTAVYYCAARVGKYAEHRYNYWGQGTQVTVSS
polyreactivity (PSR sort gate): high polyreactivity

QVQLVESGGGLVQAGGSLRLSCAASGFTFHNYAMGLYRQSPGKEREFVAAITRNTASTYYADSVKGRFTISRDNAKITVYLQLNSLKPEDTAVYYCAATDKKHRNAYDSWGQVTQVTVSS
polyreactivity (PSR sort gate): low polyreactivity

QVQLVESGGGLVLAGGSLRLRCAASGRIFGQYTMGWYRQAPGKERELVAAISRSSSSKYADSVKRRFTISRDNAKNTGYLQMNSLKPEDTAVYYCAAYVYYYGGRTYDYWGQGTQLTVSS
polyreactivity (PSR sort gate): high polyreactivity

QVQLVESGGGLVQAGGSLRLSCAASGSTYGDNAMGWYRQAPGKERELVAAISSGGGSTYYADSVKGRFTISRDNAKNTVYLQMYSLNPEDTAVYYCGADGTLTLYRYILDYWGQGYQVTVSS
polyreactivity (PSR sort gate): low polyreactivity

QVQLVESGGGLVQAGGSLRLSCAASGRIFSVYAMGWYRQAPGKEREFVASISWRGGRTYYADSVKGRFTISRDNAKNTVYLQMNSLKPEDTAVYYCNAPQRYWPPYGYWGQGTQVTVSS
polyreactivity (PSR sort gate): high polyreactivity

QVQLVESGGGLVQAGGSLRLSCAASGRTFDRYAMGWYRQAPGKERELVAAISRGGITYYADSVKERFTISRDNAKNTVYLQMNSLKPEDTAVYYCNAVRWADGDYWGQGTQVTVSS
polyreactivity (PSR sort gate): high polyreactivity

QVQLVESGGGLVQARGSLRLSCAASGSTFDYYAMGWYRQAPGKEWELVAAIDTSGDDTYYADSVKGRFTISRDNAKNTVYLQMNSLKPEDTAVYYCAADFPYDEVDYWGQGTQVTVSS
polyreactivity (PSR sort gate): low polyreactivity

QVQLVDSGGGLDQAGGSLRLSCAASGSNLRLKAMGWYRQAPGKERELVADITRAGSTYYADSVKGRFTISRDNAKNTVYLQMNSLKPEDTAVYYCAADAYTGQIPYYYFEHYYWGHGTQVTVSS
polyreactivity (PSR sort gate): high polyreactivity

QVQLVESGGGLVQAGGSIRLSCAASGSIFVSNAMGWYRQAPGKERELVAAISGGGSTYYADSVKGRFTISRDNAKNTVYLQMNSLKPEDTAVYYCAKKGGHRTYGYDSWGQGTQVTVSS
polyreactivity (PSR sort gate): low polyreactivity

QVQLVESGGGLVQAGGSLRLSCAASGFIFVRYAMGWYRQAPGKERELVAAISSGGSTQYADSVKGRFTISRDNAKNTVDLQMNSLKPEDTPVYYCAAAATPGRGGDYWGQGTQVTVSS
polyreactivity (PSR sort gate): high polyreactivity

QVQLVESGGGLDQARGSLRLSCAASGSTFYYYAMGWYRQAPGKERELVAAITSRGGRTYYADSVKGRFTISRDNAKNTVYLQMNSLKPEDTAVYYCNARTIYYGFDYWGQGTQVTVSS
polyreactivity (PSR sort gate): low polyreactivity
